The values below come from the supplement of paper PMC5998384.

Series [1] concerns HeLa Kyoto. Briefly: melting temperature (median over replicates), in situ; higher = more thermally stable.
In series [2] the test system is HeLa Kyoto. Briefly: solubility change mitosis vs G1/S (difference of NP-40 vs SDS log2 ratios) (log2 ratio difference); higher = more soluble in mitosis.
Series [3] concerns HeLa Kyoto. Briefly: solubility in G1/S (NP-40 vs SDS abundance) (log2 ratio); higher = more soluble. Particulars: cell cycle stage: G1/S.
Series [4] deals with HeLa Kyoto. Briefly: thermal stability score vs G1/S (z-score of summed log2 fold changes over temperatures); higher = more thermally stable than in G1/S.
Setting [5] is: cell cycle stage: early G1 (4.5 h after nocodazole release).
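Throughout, for melting temperature (median over replicates), in situ: HeLa Kyoto cells synchronized by double thymidine or nocodazole block, proteins quantified by TMT10plex mass spectrometry, three independent biological replicates.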
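Throughout, for solubility change mitosis vs G1/S (difference of NP-40 vs SDS log2 ratios): synchronized HeLa Kyoto cells (double thymidine block for G1/S, nocodazole release for mitosis), protein amounts in NP-40 versus SDS lysates quantified by mass spectrometry, three biological replicates.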
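Throughout, for solubility in G1/S (NP-40 vs SDS abundance): HeLa Kyoto cells arrested at G1/S by double thymidine block, proteins quantified by TMT10plex mass spectrometry in mild NP-40 versus SDS extracts, three biological replicates.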
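Throughout, for thermal stability score vs G1/S (z-score of summed log2 fold changes over temperatures): synchronized HeLa Kyoto cells, proteins quantified by TMT10plex mass spectrometry, three biological replicates, mitosis taken 0.5 h after nocodazole release, G1/S directly after double thymidine block.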

As for “MDKVCAVFGGSRGIGRAVAQLMARKGYRLAVIARNLEGAKAAAGDLGGDHLAFSCDVAKEHDVQNTFEELEKHLGRVNFLVNAAGINRDGLLVRTKTEDMVSQLHTNLLGSMLTCKAAMRTMIQQQGGSIVNVGSIVGLKGNSGQSVYSASKGGLVGFSRALAKEVARKKIRVNVVAPGFVHTDMTKDLKEEHLKKNIPLGRFGETIEVAHAVVFLLESPYITGHVLVVDGGLQLIL [CBR4]”, the melting temperature in the series on HeLa Kyoto [1] (cell cycle stage: G1/S) was determined as 54 °C; with HeLa Kyoto [1] (cell cycle stage: mitosis), 55.2 °C. In addition, the “solubility change mitosis (log2)” value in the series on HeLa Kyoto [2] was -0.0343. In the series on HeLa Kyoto [3], the “solubility in G1/S (log2)” value amounted to 0.0654. Besides, the thermal stability score in the series on HeLa Kyoto [4] (setting [5]) was 1.14; with HeLa Kyoto [4] (cell cycle stage: mitosis), -0.318.
Take “MDLAAAAEPGAGSQHLEVRDEVAEKCQKLFLDFLEEFQSSDGEIKYLQLAEELIRPERNTLVVSFVDLEQFNQQLSTTIQEEFYRVYPYLCRALKTFVKDRKEIPLAKDFYVAFQDLPTRHKIRELTSSRIGLLTRISGQVVRTHPVHPELVSGTFLCLDCQTVIRDVEQQFKYTQPNICRNPVCANRRRFLLDTNKSRFVDFQKVRIQETQAELPRGSIPRSLEVILRAEAVESAQAGDKCDFTGTLIVVPDVSKLSTPGARAETNSRVSGVDGYETEGIRGLRALGVRDLSYRLVFLACCVAPTNPRFGGKELRDEEQTAESIKNQMTVKEWEKVFEMSQDKNLYHNLCTSLFPTIHGNDEVKRGVLLMLFGGVPKTTGEGTSLRGDINVCIVGDPSTAKSQFLKHVEEFSPRAVYTSGKASSAAGLTAAVVRDEESHEFVIEAGALMLADNGVCCIDEFDKMDVRDQVAIHEAMEQQTISITKAGVKATLNARTSILAAANPISGHYDRSKSLKQNINLSAPIMSRFDLFFILVDECNEVTDYAIARRIVDLHSRIEESIDRVYSLDDIRRYLLFARQFKPKISKESEDFIVEQYKHLRQRDGSGVTKSSWRITVRQLESMIRLSEAMARMHCCDEVQPKHVKEAFRLLNKSIIRVETPDVNLDQEEEIQMEVDEGAGGINGHADSPAPVNGINGYNEDINQESAPKASLRLGFSEYCRISNLIVLHLRKVEEEEDESALKRSELVNWYLKEIESEIDSEEELINKKRIIEKVIHRLTHYDHVLIELTQAGLKGSTEGSESYEEDPYLVVNPNYLLED [MCM6]”: the melting temperature with HeLa Kyoto [1] (cell cycle stage: G1/S) came out at 50.6 °C; in the series on HeLa Kyoto [1] (cell cycle stage: mitosis), 50.7 °C. Further, the “solubility change mitosis (log2)” value with HeLa Kyoto [2] was -0.0695. For the same sequence, the “solubility in G1/S (log2)” value with HeLa Kyoto [3] was -0.0881. Besides, the thermal stability score with HeLa Kyoto [4] (setting [5]) came out at 3.18; in the series with HeLa Kyoto [4] (cell cycle stage: mitosis) it was 4.76.
“MDLENKVKKMGLGHEQGFGAPCLKCKEKCEGFELHFWRKICRNCKCGQEEHDVLLSNEEDRKVGKLFEDTKYTTLIAKLKSDGIPMYKRNVMILTNPVAAKKNVSINTVTYEWAPPVQNQALARQYMQMLPKEKQPVAGSEGAQYRKKQLAKQLPAHDQDPSKCHELSPREVKEMEQFVKKYKSEALGVGDVKLPCEMDAQGPKQMNIPGGDRSTPAAVGAMEDKSAEHKRTQYSCYCCKLSMKEGDPAIYAERAGYDKLWHPACFVCSTCHELLVDMIYFWKNEKLYCGRHYCDSEKPRCAGCDELIFSNEYTQAENQNWHLKHFCCFDCDSILAGEIYVMVNDKPVCKPCYVKNHAVVCQGCHNAIDPEVQRVTYNNFSWHASTECFLCSCCSKCLIGQKFMPVEGMVFCSVECKKRMS [TES]”: the figures for the melting temperature with HeLa Kyoto [1] (cell cycle stage: G1/S) and in the series with HeLa Kyoto [1] (cell cycle stage: mitosis) were 52 °C and 52.3 °C, respectively. In the series on HeLa Kyoto [2], the “solubility change mitosis (log2)” value was -0.111. In the series on HeLa Kyoto [3], the “solubility in G1/S (log2)” value was found to be 0.0767. Further, the thermal stability score was -0.92 in the series with HeLa Kyoto [4] (setting [5]) and -1.54 in the series with HeLa Kyoto [4] (cell cycle stage: mitosis).
For “MDLGAITKYSALHAKPNGLILQYGTAGFRTKAEHLDHVMFRMGLLAVLRSKQTKSTIGVMVTASHNPEEDNGVKLVDPLGEMLAPSWEEHATCLANAEEQDMQRVLIDISEKEAVNLQQDAFVVIGRDTRPSSEKLSQSVIDGVTVLGGQFHDYGLLTTPQLHYMVYCRNTGGRYGKATIEGYYQKLSKAFVELTKQASCSGDEYRSLKVDCANGIGALKLREMEHYFSQGLSVQLFNDGSKGKLNHLCGADFVKSHQKPPQGMEIKSNERCCSFDGDADRIVYYYHDADGHFHLIDGDKIATLISSFLKELLVEIGESLNIGVVQTAYANGSSTRYLEEVMKVPVYCTKTGVKHLHHKAQEFDIGVYFEANGHGTALFSTAVEMKIKQSAEQLEDKKRKAAKMLENIIDLFNQAAGDAISDMLVIEAILALKGLTVQQWDALYTDLPNRQLKVQVADRRVISTTDAERQAVTPPGLQEAINDLVKKYKLSRAFVRPSGTEDVVRVYAEADSQESADHLAHEVSLAVFQLAGGIGERPQPGF [PGM3]”, the melting temperature came to 51.4 °C with HeLa Kyoto [1] (cell cycle stage: G1/S) and 51.2 °C in the series on HeLa Kyoto [1] (cell cycle stage: mitosis). In addition, in the series with HeLa Kyoto [2], the “solubility change mitosis (log2)” value was -0.0835. Moreover, the “solubility in G1/S (log2)” value with HeLa Kyoto [3] was found to be 0.186. The thermal stability score in the series with HeLa Kyoto [4] (setting [5]) was -0.282; with HeLa Kyoto [4] (cell cycle stage: mitosis), -0.735.
Regarding “MDLGPLNICEEMTILHGGFLLAEQLFHPKALAELTKSDWERVGRPIVEALREISSAAAHSQPFAWKKKALIIIWAKVLQPHPVTPSDTETRWQEDLFFSVGNMIPTINHTILFELLKSLEASGLFIQLLMALPTTICHAELERFLEHVTVDTSAEDVAFFLDVWWEVMKHKGHPQDPLLSQFSAMAHKYLPALDEFPHPPKRLRSDPDACPTMPLLAMLLRGLTQIQSRILGPGRKCCALANLADMLTVFALTEDDPQEVSATVYLDKLATVISVWNSDTQNPYHQQALAEKVKEAERDVSLTSLAKLPSETIFVGCEFLHHLLREWGEELQAVLRSSQGTSYDSYRLCDSLTSFSQNATLYLNRTSLSKEDRQVVSELAECVRDFLRKTSTVLKNRALEDITASIAMAVIQQKMDRHMEVCYIFASEKKWAFSDEWVACLGSNRALFRQPDLVLRLLETVIDVSTADRAIPESQIRQVIHLILECYADLSLPGKNKVLAGILRSWGRKGLSEKLLAYVEGFQEDLNTTFNQLTQSASEQGLAKAVASVARLVIVHPEVTVKKMCSLAVVNLGTHKFLAQILTAFPALRFVEEQGPNSSATFMVSCLKETVWMKFSTPKEEKQFLELLNCLMSPVKPQGIPVAALLEPDEVLKEFVLPFLRLDVEEVDLSLRIFIQTLEANACREEYWLQTCSPFPLLFSLCQLLDRFSKYWQLPKEKRCLSLDRKDLAIHILELLCEIVSANAETFSPDVWIKSLSWLHRKLEQLDWTVGLRLKSFFEGHFKCEVPATLFEICKLSEDEWTSQAHPGYGAGTGLLAWMECCCVSSGISERMLSLLVVDVGNPEEVRLFSKGFLVALVQVMPWCSPQEWQRLHQLTRRLLEKQLLHVPYSLEYIQFVPLLNLKPFAQELQLSVLFLRTFQFLCSHSCRDWLPLEGWNHVVKLLCGSLTRLLDSVRAIQAAGPWVQGPEQDLTQEALFVYTQVFCHALHIMAMLHPEVCEPLYVLALETLTCYETLSKTNPSVSSLLQRAHEQRFLKSIAEGIGPEERRQTLLQKMSSF [GEMIN4]”, the results for the melting temperature with HeLa Kyoto [1] (cell cycle stage: G1/S) and in the series on HeLa Kyoto [1] (cell cycle stage: mitosis) were 47 °C and 49.3 °C, respectively. Further, the “solubility change mitosis (log2)” value in the series with HeLa Kyoto [2] is -0.14. For the same sequence, the “solubility in G1/S (log2)” value in the series with HeLa Kyoto [3] was -0.428. Also, the thermal stability score amounted to 0.771 in the series on HeLa Kyoto [4] (setting [5]) and 3.29 in the series with HeLa Kyoto [4] (cell cycle stage: mitosis).
